The DeepSol protein solubility set

Experiment: soluble on expression in E. coli; label from the status in PepcDB or PDB records
With “MRKILITGGAGFIGSALVRYIINETSDAVVVVDKLTYAGNLMSLAPVAQSERFAFEKVDICDRAELARVFTEHQPDCVMHLAAESHVDRSIDGPAAFIETNIVGTYTLLEAARAYWNALTEDKKSAFRFHHISTDEVYGDLHSTDDFFTETTPYAPSSPYSASKASSDHLVRAWLRTYGLPTLITNCSNNYGPYHFPEKLIPLMILNALAGKSLPVYGNGQQIRDWLYVEDHARALYCVATTGKVGETYNIGGHNERKNLDVVETICELLEELAPNKPHGVAHYRDLITFVADRPGHDLRYAIDASKIARELGCVPQETFESGMRKTVQWYLANESWWKQVQDGSYQGERLGLKG” the “soluble on expression in E. coli” value was “soluble”.
With “MGSDKIHHHHHHMSSKVAKELADFLLQIEQRSQFHAGYPYNLSCDYSAIGKFFNHLLNNAGDPYIEPDFGLHSRKFEQEVLSFFAHLYKIPENQFWGYVTAGGTEGNLYGIFLAREIYPNGILYSSQDSHYSIPKAAKLFRIQHNVVNSQINGEMNYDHFEQLLSENRRYPAIINLNIGTTVKGAIDNLDKVLEILERNQIKDYYIHCDAALSGLILPFLDGAPQVNFQKPIDSVAISAKFIGSPLPCGVVLTKKKWVEKVETEIEYIGSKDTTILGSRNGHTPLILWYAVQTRGYDGLAKEAKTCIHNAQYLFQQLQIREYPCMLNNFSNTVVFQKPSQRLIKKWQLAVFENWAHMIVMQNIVREKIDIFINELLLEQGLLNNAKNFQLQPVLQH” the “soluble on expression in E. coli” value was “not soluble”.
In the case of “MSTTTAITSTLQRVTKAPEGRRMLRVEARNSQTPIESKPRWIRTAVKTGPEYQDMKKKVSGASLHTVCQEAGCPNIHECWESREATFLIGGANCSRRCDFCQINSAKPEPLDRDEPRRVAESVREMQLNYSTITGVTRDDLEDEGAWLYAEVVRKIHELNPHTGVENLTPDFSGKPDLLQEVFEARPEVFAHNLETVPRIFKRIRPAFRYERSLDVIRQARDFGLVTKSNLILGMGETVDEIRDALVDLHSAGCDIITITQYLRPGPMYHPIDRWVKPEEFIDHADFARELGFGAVMSGPLVRSSYRAGKLYAEALAARGESLPENLAHLATTADGSTAQEANTLLEKYGPSQDTPVVSSKA”, the “soluble on expression in E. coli” value is reported as “not soluble”.
In the case of “MCGGRGTRLDTKVEKPLFRIGGVPMVGRVVGALEDSAVERIIAATSPNAPETQSCLDVPCIETPGEGYVADLNAALNDDRLSQPVLTVAADLPLLDGEIVDRVLDEHNGGSLTVLVPASLKRALGVSDDTTFDNGGREVAPTGVNVVSDGPDDAWLTRDRRVAVNVNTLADARVAEQWLLEHHHHHH”, the “soluble on expression in E. coli” value is reported as “not soluble”.
In the case of “MSFLISFDKSKKHPAHLQLANNLKIALALEYASKNLKPEVDNDNAAMELRNTKEPFLLFDANAILRYVMDDFEGQTSDKYQFALASLQNLLYHKELPQQHVEVLTNKAIENYLVELKEPLTTTDLILFANVYALNSSLVHSKFPELPSKVHNAVALAKKHVPRDSSSFKNIGAVKIQADLTVKPKDSEILPKPNERNILITSALPYVNNVPHLGNIIGSVLSADIFARYCKGRNYNALFICGTDEYGTATETKALEEGVTPRQLCDKYHKIHSDVYKWFQIGFDYFGRTTTDKQTEIAQHIFTKLNSNGYLEEQSMKQLYCPVHNSYLADRYVEGECPKCHYDDARGDQCDKCGALLDPFELINPRCKLDDASPEPKYSDHIFLSLDKLESQISEWVEKASEEGNWSKNSKTITQSWLKDGLKPRCITRDLVWGTPVPLEKYKDKVLYVWFDATIGYVSITSNYTKEWKQWWNNPEHVSLYQFMGKDNVPFHTVVFPGSQLGTEENWTMLHHLNTTEYLQYENGKFSKSRGVGVFGNNAQDSGISPSVWRYYLASVRPESSDSHFSWDDFVARNNSELLANLGNFVNRLIKFVNAKYNGVVPKFDPKKVSNYDGLVKDINEILSNYVKEMELGHERRGLEIAMSLSARGNQFLQENKLDNTLFSQSPEKSDAVVAVGLNIIYAVSSIITPYMPEIGEKINKMLNAPALKIDDRFHLAILEGHNINKAEYLFQRIDEKKIDEWRAKYGGQQV”, the “soluble on expression in E. coli” value is reported as “not soluble”.
With “MQHYLLDSNQRLNVSFSKDSVAAYYQCFNQPYRKEVPPLMCASLWPKFDLFKKYANSELILTKSAINQTQKIEVDTIYVGHLEDIECRQTRNITRYTMALTLTKNDQHVITVTQTFIKAMK” the “soluble on expression in E. coli” value was “not soluble”.
In the case of “MSLGKDVRFHTENWSYYPWRLWAEQFLQFEDWCLQASSKVPGIPLHVKRTVTFSTRQILDALSPSNFVLTNPDLLQETIRSNGQNLIRGTELAFQDFVEKITGSPPAGVENFIPGKQVAVTEGKVVYSNHLIELIQYTPQTEKVYKEPILILPAWIMKYYILDLLPENSLVNWLVRQGHTVFIVSWRNPTKEDRNIGLDDYYKLGAMDAINAVSNAIPHTKIHLMGYCLGGTLALLTAAAMAHDHDNRLKTLSLLAAQGDFIDAGELLLFITKSEVSFLKSMMWEQGYLDTKQMSGTFQMLRSYDLIWSKMVQDYMHGTQRGMIPLLAWNADATRMPYKMHSEYLEKLFLNNDFAEGRFILDGKPVVGENIRMPAFVVSTEKDHVAPWKSVYKTHLLINSDITFVLTNGGHNAGIVSEPGHEGRYYRIRERKMDSTYLDPTNWLKKAELREGSWWIAWHDWLVNHSSQKQVSAPKLDKNLPNAPGKYVLQKEGHHHHHH”, the “soluble on expression in E. coli” value is reported as “soluble”.
For “MGSDKIHHHHHHMRIVAVTDIHGNMASTVALANILKKIEAELLLIAGDITHFSGGEIAKQILEPLLKLGVRVLAVMGNCDGKDVPKVLDELGINVHNARVEVKKVGVVGFGGSSVTPFSTIWEFSEEEIYSSLKRNYRSGDIVLTHAPPYRTRIDKTFSGIHAGSKGLRKFIEEEQPPICICGHIHEARGIDKIGETLVVNPGPLSRRYYAVIDSETWEVKLERL”, the “soluble on expression in E. coli” value was “not soluble”.
For “QKKTVQVYRIIAKNTIEERVCQVQAEKQELVSKTLVEDVNFFESLTNEELLRLFE”, the “soluble on expression in E. coli” value was “not soluble”.
In the case of “DVIELTDDSFDKNVLDSEDVWMVEFYAPWCGHCKNLEPEWAAAASEVKEQTKGKVKLAAVDATVNQVLASRYGIRGFPTIKIFQKGESPVDYDGGRTRSDIVSRALDLFSDNAPPPELLE”, the “soluble on expression in E. coli” value is reported as “soluble”.
With “MSLAQVEQVIQVGHLLDVRTGNYQKNKAILVEAGRISAIVDADQAPKNVQVIDLSTHYVVPGLIDMHVHLTSDPQKHGYRGLVETPTREAIFGVSAAKATLKAGFTTVRNLGAAGFADVSLRDAIDDGEIQGPRMRVAANTICITGGHCDNNLLPHIYNSRSAGVANGPDEVRAKVRENIKYGADVIKFAATGGVLSKNTDVNASQYNFEEMKALIDEAHDRGRIVAAHAHGLQGIKRAIEAGVDSIEHGSFIDDDAIKLAKKHGTYLVMDVYVSDYILSEGEKAGILPESLAKEKKVGLLQRQNFQKAVKAGVKMAYGTDAGVYTHGLNGRQFAYMVQWGMTPLQAIQAATVNAGTLLNWKNEQGQQNVGVLEVGAFADLVAVPVDPLTQEGHHHHHH” the “soluble on expression in E. coli” value was “soluble”.
In the case of “MKKDWQEQLPLNHIRDIKTVSGGDVNEAFKVTTEDDVYFLLVQRNRDKSFYAAEIAGLNAFEEAGVTAPHVIDSGEINGDAFLILSYLDEGTTGSQRELGQLVAKMHSQQQSDGKFGFDLPHEGGDISFDNTWSDSWIEIFVERRMDHLRDELMRKGLWNDEDNKVYEQVRTVMVNELENHNSNPSLLHGDLWGGNYMFLTDGSPALFDPAPFYGDREFDLGITTVFGGFTREFYDEYEKHYPLGKGSRKRLEFYRLYLFMVHLLKFGGMYASSVNRSMDEILALEHHHHHH”, the “soluble on expression in E. coli” value is reported as “soluble”.
